In PMC12436637:

Target: low-density lipoprotein receptor LRP1 on human iPSC-derived cortical excitatory neurons (human (endogenous in iPSC-derived neurons)) (UniProt Q07954)
UniProt Q07954, sequence (Q07954 20-4544): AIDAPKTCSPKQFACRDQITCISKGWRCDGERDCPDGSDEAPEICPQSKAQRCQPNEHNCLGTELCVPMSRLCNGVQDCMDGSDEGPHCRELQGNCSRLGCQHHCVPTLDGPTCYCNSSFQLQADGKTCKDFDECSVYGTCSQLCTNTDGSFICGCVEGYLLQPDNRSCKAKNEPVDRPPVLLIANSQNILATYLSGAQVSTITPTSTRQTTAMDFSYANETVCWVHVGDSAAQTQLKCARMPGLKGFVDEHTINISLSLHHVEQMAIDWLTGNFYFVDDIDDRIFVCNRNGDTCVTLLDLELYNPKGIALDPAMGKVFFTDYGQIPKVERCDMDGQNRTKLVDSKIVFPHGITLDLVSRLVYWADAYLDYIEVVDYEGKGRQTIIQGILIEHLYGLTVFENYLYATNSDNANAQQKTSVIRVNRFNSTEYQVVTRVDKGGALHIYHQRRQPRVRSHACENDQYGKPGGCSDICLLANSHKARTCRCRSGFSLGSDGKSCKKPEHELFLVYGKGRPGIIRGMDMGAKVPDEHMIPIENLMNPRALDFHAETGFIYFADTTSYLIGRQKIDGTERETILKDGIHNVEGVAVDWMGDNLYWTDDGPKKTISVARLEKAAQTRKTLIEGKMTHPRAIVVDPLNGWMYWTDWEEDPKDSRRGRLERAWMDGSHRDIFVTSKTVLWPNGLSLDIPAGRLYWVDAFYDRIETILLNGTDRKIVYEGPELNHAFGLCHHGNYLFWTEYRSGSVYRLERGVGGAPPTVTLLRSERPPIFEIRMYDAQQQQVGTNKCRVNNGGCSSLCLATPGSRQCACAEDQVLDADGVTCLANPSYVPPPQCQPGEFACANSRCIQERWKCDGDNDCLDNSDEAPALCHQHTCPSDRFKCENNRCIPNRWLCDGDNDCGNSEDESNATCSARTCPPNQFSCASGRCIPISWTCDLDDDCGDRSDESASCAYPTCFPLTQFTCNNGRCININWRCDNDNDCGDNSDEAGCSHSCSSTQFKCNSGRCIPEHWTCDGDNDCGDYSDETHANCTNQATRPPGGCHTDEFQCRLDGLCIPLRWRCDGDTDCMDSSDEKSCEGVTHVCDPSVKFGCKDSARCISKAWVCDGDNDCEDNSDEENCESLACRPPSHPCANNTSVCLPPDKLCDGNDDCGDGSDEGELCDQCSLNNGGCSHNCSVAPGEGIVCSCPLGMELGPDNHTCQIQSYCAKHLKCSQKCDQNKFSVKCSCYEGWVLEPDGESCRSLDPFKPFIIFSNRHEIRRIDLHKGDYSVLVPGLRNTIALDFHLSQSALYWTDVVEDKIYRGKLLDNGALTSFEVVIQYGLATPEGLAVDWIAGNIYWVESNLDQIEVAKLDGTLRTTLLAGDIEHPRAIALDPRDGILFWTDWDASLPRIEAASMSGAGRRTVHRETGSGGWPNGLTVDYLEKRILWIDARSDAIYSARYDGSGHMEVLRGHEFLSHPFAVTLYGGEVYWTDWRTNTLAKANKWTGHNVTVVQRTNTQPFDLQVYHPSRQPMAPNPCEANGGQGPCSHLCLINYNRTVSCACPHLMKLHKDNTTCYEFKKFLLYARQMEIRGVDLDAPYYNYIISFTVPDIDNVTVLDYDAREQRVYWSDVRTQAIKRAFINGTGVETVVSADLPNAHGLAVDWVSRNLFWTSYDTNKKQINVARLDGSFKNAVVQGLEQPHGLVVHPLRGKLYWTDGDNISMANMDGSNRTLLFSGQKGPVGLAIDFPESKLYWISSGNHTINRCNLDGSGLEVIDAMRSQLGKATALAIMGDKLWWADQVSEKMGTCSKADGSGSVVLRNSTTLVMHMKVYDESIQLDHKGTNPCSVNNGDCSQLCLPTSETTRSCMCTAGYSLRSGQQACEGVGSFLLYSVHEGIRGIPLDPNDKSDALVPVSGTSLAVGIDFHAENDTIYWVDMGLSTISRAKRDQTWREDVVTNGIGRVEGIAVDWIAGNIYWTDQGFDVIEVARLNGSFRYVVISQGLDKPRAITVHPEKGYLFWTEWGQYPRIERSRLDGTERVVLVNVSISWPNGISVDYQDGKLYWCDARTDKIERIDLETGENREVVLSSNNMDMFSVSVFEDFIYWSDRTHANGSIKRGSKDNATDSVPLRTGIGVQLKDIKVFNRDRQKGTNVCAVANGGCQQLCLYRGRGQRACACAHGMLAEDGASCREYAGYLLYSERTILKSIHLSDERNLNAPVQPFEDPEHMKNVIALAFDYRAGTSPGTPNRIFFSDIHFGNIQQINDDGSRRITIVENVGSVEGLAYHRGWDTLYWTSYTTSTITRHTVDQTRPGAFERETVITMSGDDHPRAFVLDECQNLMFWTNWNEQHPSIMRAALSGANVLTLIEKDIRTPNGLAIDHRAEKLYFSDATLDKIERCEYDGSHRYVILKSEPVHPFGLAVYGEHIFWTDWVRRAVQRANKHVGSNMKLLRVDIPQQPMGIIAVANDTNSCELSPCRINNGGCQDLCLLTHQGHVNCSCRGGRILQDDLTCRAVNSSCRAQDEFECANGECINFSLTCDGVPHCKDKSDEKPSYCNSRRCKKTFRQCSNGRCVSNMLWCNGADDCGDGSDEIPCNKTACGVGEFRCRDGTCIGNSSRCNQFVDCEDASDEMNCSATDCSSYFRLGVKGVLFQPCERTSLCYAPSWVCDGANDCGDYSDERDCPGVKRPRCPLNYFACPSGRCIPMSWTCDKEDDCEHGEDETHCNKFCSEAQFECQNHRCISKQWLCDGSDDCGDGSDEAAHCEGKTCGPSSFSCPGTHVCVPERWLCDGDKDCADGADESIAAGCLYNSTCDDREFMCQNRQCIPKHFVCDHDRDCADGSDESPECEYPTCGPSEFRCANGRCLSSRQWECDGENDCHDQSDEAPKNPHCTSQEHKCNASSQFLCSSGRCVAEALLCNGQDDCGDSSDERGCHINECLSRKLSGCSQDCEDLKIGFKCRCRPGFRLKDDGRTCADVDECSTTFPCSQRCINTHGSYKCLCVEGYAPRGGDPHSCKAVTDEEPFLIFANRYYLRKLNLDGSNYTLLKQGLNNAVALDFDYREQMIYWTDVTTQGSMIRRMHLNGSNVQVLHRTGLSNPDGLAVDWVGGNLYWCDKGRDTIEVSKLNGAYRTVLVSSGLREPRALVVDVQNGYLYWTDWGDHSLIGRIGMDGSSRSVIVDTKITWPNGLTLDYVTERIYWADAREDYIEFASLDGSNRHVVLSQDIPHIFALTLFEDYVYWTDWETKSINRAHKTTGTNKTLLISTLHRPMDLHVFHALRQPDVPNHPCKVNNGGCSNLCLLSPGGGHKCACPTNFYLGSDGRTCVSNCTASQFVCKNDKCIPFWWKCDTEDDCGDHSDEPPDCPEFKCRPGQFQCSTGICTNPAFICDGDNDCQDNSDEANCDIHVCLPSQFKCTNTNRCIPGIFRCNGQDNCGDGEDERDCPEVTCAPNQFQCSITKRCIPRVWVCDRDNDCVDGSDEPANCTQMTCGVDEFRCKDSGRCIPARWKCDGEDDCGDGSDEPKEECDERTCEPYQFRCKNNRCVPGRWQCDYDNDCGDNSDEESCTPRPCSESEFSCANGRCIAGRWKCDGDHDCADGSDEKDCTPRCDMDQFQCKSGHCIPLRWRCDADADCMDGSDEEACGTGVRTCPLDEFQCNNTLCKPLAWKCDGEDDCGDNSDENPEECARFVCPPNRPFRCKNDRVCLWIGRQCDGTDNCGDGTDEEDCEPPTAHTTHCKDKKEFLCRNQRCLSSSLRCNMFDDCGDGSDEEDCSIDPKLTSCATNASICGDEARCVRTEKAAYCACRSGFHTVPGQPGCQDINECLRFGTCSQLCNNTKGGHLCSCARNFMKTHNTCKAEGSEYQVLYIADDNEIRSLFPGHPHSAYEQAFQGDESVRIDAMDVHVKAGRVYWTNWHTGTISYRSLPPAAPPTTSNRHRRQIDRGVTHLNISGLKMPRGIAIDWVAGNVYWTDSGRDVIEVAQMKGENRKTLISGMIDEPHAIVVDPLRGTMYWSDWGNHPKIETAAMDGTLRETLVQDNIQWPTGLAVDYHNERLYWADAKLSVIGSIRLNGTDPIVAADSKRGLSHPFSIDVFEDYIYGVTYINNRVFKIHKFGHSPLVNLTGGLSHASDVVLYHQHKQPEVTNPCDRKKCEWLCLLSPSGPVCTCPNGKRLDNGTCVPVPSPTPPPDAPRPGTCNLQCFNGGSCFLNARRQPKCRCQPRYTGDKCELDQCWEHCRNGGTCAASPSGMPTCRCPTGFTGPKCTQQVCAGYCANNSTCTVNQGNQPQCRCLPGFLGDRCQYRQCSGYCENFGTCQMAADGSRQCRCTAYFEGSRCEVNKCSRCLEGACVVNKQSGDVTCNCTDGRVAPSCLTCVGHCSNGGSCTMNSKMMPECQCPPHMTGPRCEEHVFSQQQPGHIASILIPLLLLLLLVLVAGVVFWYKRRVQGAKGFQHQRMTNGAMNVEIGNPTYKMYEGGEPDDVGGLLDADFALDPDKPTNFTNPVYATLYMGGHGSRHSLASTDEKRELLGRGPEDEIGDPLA

Q: “monomeric tau P301S (tau P301S_FLAG×3_10×his-tag), pHrodo-labelled (natural protein)” was tested. Which decrease in neuronal uptake of monomeric tau-pHrodo (tau-positive objects, live imaging over 4 h) with 100 nM soluble recombinant LRP1 domain IV (Human LRP1 Cluster IV Fc Chimera, R&D Systems) added did it give?
A: Its decrease in neuronal uptake of monomeric tau-pHrodo (tau-positive objects, live imaging over 4 h) with 100 nM soluble recombinant LRP1 domain IV (Human LRP1 Cluster IV Fc Chimera, R&D Systems) added is 68%.

Q: And the neuronal uptake of monomeric tau-pHrodo (tau-positive objects, live imaging over 4 h) with 10 nM RAP chaperone (Human LRPAP Protein, R&D Systems) added to block LDL receptors?
A: Its neuronal uptake of monomeric tau-pHrodo (tau-positive objects, live imaging over 4 h) with 10 nM RAP chaperone (Human LRPAP Protein, R&D Systems) added to block LDL receptors is 63%.
